Measured values: patent publication US10407712B2, “Methods, compositions and kits for high throughput kinase activity screening using mass spectrometry and stable isotopes” (President and Fellows of Harvard College, priority 2008, dated 2019)

How the values were obtained:
[1] = target: T1, activated, purified Akt (Homo sapiens, UniProt P31749); assay: In vitro peptide phosphorylation by purified Akt; assay type: biochemical; conditions: 100 μM peptide, individually reacted
T1 construct: Purified human active kinases of Akt1 (full length); purchased Cell Signaling Technology (Danvers, Mass.)
From the text: (§1) Reaction mixture was supplemented with 0.1% BSA. Other conditions were the same as in FIG. 10A.
(§2) Purified human active kinases of Akt1 (full length), extracellular signal-regulated kinase 1 (ERK1, 1-379), mitogen-activated protein kinase kinase 1 (MEK1, 1-393), 90 kDa ribosomal S6 kinases 1 (RSK1, 1-735), cAMP-dependent protein kinase (PKA) catalytic subunit-α (PKA Cα, 1-351), protein kinase Cα (PKCα, full length), epidermal growth factor (EGF) receptor (EGFR, 672-1210), platelet-derived growth factor (PDGF) receptor α (PDGFRα, 550-1090), vascular endothelial growth factor (VEGF) receptor 1 (VEGFR1 784-1338), Src (full length), casein kinase 2 (CK2, full length), Aurora A (1-403), AMP-activated protein kinase α1β1γ1 (AMPK α1β1γ1, full length), glycogen synthase kinase-3α (GSK-3α, 1-483) and MAP/microtubule affinity-regulating kinase 1 (MARK 1, full length) were obtained from Cell Signaling Technology (Danvers, Mass.). Cdc2/cyclin B1 (full length) and insulin-like growth factor (IGF)-I receptor (IGFIR, 959-1367) were obtained from Upstate (Temecula, Calif.).
Peptides were synthesized, purified and quantified as described in Yu et al. 2009 Proc Natl Acad Sci USA 106: 11606-11611, hereby incorporated by reference herein in its entirety. […] Alternatively, reactions were performed using 6 μg cell lysate aliquotes mixed to a final volume of 20 μl. […]

[2] = target: T2, recombinant RSK1 (Homo sapiens, UniProt Q15418); assay: In vitro peptide phosphorylation by purified RSK; assay type: biochemical; conditions: 100 μM peptide, individually reacted
T2 construct: 90 kDa ribosomal S6 kinases 1 (RSK1, 1-735); purchased Cell Signaling Technology (Danvers, Mass.)
From the text: as §1, §2
Peptides were synthesized, purified and quantified as described in Yu et al. 2009 Proc Natl Acad Sci USA 106: 11606-11611, hereby incorporated by reference herein in its entirety. […] Alternatively, reactions were performed using 6 μg cell lysate aliquotes mixed to a final volume of 20 μl. Cell lysate or other kinase source was added to the substrate mixture in 25 mM Tris-Cl, pH 7.5, containing 5 mM ATP, 7.5 mM MgCl2, 0.2 mM EGTA, 7.5 mM β-glycerophosphate, 0.1 mM Na3VO4, and 0.1 mM DTT. The reaction was incubated at 25° C. for 60 min and then terminated by the addition of 100 μl of 1% trifluoroacetic acid (TFA) containing a known amount of an internal standard (typically 20 pmol). Alternatively, the reaction was incubated at 20° C. for 45 min before termination with TFA.
It was observed that basal phosphorylation of these peptides was not affected by knockdown and likely was the result of remaining RSK isoforms or other basophilic kinases (FIG. 5C).

T1 sequence (P31749 whole entry): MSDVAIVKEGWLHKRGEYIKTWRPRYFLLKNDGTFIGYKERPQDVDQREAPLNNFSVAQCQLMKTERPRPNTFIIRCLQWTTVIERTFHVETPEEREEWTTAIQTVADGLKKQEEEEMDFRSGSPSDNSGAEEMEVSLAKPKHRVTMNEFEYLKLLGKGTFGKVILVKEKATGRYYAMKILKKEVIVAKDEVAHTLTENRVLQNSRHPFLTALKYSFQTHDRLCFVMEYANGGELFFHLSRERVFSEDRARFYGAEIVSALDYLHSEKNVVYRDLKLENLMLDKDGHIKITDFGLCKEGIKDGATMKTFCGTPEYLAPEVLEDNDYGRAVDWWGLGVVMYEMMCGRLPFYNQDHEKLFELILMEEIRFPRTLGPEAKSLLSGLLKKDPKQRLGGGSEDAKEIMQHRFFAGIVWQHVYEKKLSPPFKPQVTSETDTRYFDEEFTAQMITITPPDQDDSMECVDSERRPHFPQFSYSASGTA
T2 sequence (Q15418 whole entry): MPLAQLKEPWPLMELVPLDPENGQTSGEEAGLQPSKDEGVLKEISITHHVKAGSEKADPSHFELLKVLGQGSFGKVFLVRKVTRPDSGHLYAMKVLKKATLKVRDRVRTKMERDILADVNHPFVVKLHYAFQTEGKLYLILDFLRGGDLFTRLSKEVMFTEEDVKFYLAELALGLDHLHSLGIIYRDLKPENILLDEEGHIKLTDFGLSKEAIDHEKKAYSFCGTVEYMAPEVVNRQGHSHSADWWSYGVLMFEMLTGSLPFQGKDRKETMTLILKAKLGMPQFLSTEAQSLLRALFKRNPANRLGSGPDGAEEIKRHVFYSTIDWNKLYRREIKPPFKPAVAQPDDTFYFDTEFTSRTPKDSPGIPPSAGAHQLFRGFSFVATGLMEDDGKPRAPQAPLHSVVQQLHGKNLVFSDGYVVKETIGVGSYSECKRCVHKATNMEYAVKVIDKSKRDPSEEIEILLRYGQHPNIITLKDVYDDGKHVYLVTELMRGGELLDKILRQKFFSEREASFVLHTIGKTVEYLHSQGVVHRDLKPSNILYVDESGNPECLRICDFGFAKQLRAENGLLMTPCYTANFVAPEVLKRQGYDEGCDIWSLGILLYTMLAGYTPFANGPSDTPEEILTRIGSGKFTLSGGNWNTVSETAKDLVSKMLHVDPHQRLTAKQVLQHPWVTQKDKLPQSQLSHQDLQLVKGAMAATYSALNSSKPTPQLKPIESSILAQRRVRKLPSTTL

phosphorylation by Akt [1]: strong phosphorylation
phosphorylation by RSK [2]: strong phosphorylation
Sequence: RIRTQSFSLQPFR (The sequence was designed and synthesized) [F6]
